Source: publication PMC3829608 (Molecular cancer therapeutics, 2012)
Entries after “also recorded” stand apart in the source; their conditions may differ.

Tests used:
EGFR [1] = target: T1, EGFR (Homo sapiens, UniProt P00533); assay: Saturation binding assay on Gli36Δ5 cells
EGFR [2] = target: T1, EGFR; details: radioligand binding assays; cited from earlier work
[3] = Live animal FMT imaging of orthotopic Gli36Δ5 brain tumors; type: in vivo, mice; details: mouse, in vivo, iv, 1 nmol/g
[4] = test system: Gli36Δ5 orthotopic brain tumors; assay: as above; type: in vivo, mice; details: representative FMT 3-dimensional reconstruction, matching ROIs, 1 nmol/g
[5] = Live animal FMT imaging of orthotopic U87-MG brain tumors; type: in vivo, mice; details: mouse, in vivo, iv, 1 nmol/g
[6] = test system: U87-MG orthotopic brain tumors; assay: as above; type: in vivo, mice; details: representative FMT 3-dimensional reconstruction, matching ROIs, 1 nmol/g
A431 cells = assay: Uptake in A431 cells with EGF stimulation; type: cell-based, human; details: A431 cells in the presence of the EGF ligand

Cy5.5-YHWYGYTPQNVI-amide [Compound 1]
Affinity for the cells (in words) (EGFR [1]): micromolar range

Cy5.5-(AEEA)3-YHWYGYTPQNVI-amide [Compound 4]
Affinity for the cells (in words) (EGFR [1]): micromolar range

YHWYGYTPQNVI [GE11]
Binding affinity for EGFR (in words) (EGFR [2]): nanomolar range

Cy5.5-(AEEA)2-YHWYGYTPQNVI-amide [Compound 3]
Affinity for the cells (in words) (EGFR [1]): micromolar range

CC[C@H](C)[C@H](NC(=O)[C@@H](NC(=O)[C@H](CC(N)=O)NC(=O)[C@H](CCC(N)=O)NC(=O)[C@@H]1CCCN1C(=O)[C@@H](NC(=O)[C@H](Cc1ccc(O)cc1)NC(=O)CNC(=O)[C@H](Cc1ccc(O)cc1)NC(=O)[C@H](Cc1c[nH]c2ccccc12)NC(=O)[C@H](Cc1c[nH]cn1)NC(=O)[C@H](Cc1ccc(O)cc1)NC(=O)COCCOCCNC(=O)CCCCCN1C(=CC=CC=CC2=[N+](CC)c3ccc4c(S(=O)(=O)[O-])cc(S(=O)(=O)O)cc4c3C2(C)C)C(C)(C)c2c1ccc1c(S(=O)(=O)O)cc(S(=O)(=O)O)cc21)[C@@H](C)O)C(C)C)C(N)=O [Compound 2]
tissue uptake dose at 1 h [3]: 1.1 %ID
Amount of fluorescence in ROI, Gli36Δ5 [4]: 9,271 nmol/L
tissue uptake dose at 1 h [5]: 0.27 %ID
Amount of fluorescence in ROI, U87-MG [6]: 1,608 nmol/L
Uptake in A431 cells on stimulation with EGF (A431 cells): increasing fluorescence; also recorded: increased the level of uptake
